# T1: recombinant human SOST (rhSOST) (human, UniProt Q9BQB4 24-213)
# T1 construct: Treated as one molecule; also called recombinant human SOST protein; human sclerostin
# T1 sequence: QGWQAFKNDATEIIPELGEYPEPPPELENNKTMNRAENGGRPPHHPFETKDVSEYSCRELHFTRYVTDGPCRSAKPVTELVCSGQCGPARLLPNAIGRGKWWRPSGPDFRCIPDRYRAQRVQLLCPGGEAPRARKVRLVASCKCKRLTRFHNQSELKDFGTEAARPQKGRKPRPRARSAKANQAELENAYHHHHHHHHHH
# B1: DM1 (antibody, V domains shown)
# VH: EVQLLESGGGLVQPGGSLRLSCAASGHTFSDYWMQWVRQAPGKGLEWVGAIYPGDGDTRYNQKFKDRFTISRDNSKNTLYLQMNSLRAEDTAVYYCARSMDYWGQGTLVTVSS
# VL: DIVMTQSPDSLAVSLGERATINCRASKTVDSYGNSFMHWFQQKPGQPPKLLIHHSSNLESGVPDRFSGSGSGTDFTLTISSLQAEDVAVYYCLQTIEHPYTFGQGTKLEIK
# notes: also called mH10/mL4
# B2: DM13 (antibody, V domains shown)
# VH: EVQLLESGGGLVQPGGSLRLSCAASGHTFTDYWMQWVRQAPGKGLEWIGAIYPGDGDTRYNQKFKDRFTISRDNSKNTLYLQMNSLRAEDTAVYYCARSMDYWGQGTLVTVSS
# VL: DIVMTQSPDSLAVSLGERATINCRASKTVDSYGNSFMHWFQQKPGQPPKLLIYHSSNLESGVPDRFSGSGSGTDFTLTISSLQAEDVAVYYCLQTIEDPYTFGQGTKLEIK
# notes: also called wt/mL2
# B3: DM16 (antibody, V domains shown)
# VH: EVQLLESGGGLVQPGGSLRLSCAASGHTFTDYWMQWVRQAPGKGLEWIGAIYPGDGDTRYNQKFKDRFTISRDNSKNTLYLQMNSLRAEDTAVYYCARSMDYWGQGTLVTVSS
# VL: DIVMTQSPDSLAVSLGERATINCRASKTVDSYGNSFMHWFQQKPGQPPKLLIHHSSNLESGVPDRFSGSGSGTDFTLTISSLQAEDVAVYYCLQTIEDHYTFGQGTKLEIK
# notes: also called wt/mL5
# B4: DM14 (antibody, V domains shown)
# VH: EVQLLESGGGLVQPGGSLRLSCAASGHTFTDYWMQWVRQAPGKGLEWIGAIYPGDGDTRYNQKFKDRFTISRDNSKNTLYLQMNSLRAEDTAVYYCARSMDYWGQGTLVTVSS
# VL: DIVMTQSPDSLAVSLGERATINCRASKTVDSYGNSFMHWYQQKPGQPPKLLIYHSSNLESGVPDRFSGSGSGTDFTLTISSLQAEDVAVYYCLQTIEDPYTFGQGTKLEIK
# notes: also called wt/mL3
# B5: DM12 (antibody, V domains shown)
# VH: EVQLLESGGGLVQPGGSLRLSCAASGHTFTDYWMQWVRQAPGKGLEWIGAIYPGDGDTRYNQKFKDRFTISRDNSKNTLYLQMNSLRAEDTAVYYCARSMDYWGQGTLVTVSS
# VL: DIVMTQSPDSLAVSLGERATINCRASKTVDSYGNSFMHWYQQKPGQPPKLLIHHSSNLESGVPDRFSGSGSGTDFTLTISSLQAEDVAVYYCLQTIEDPYTFGQGTKLEIK
# notes: also called wt/mL1
# B6: DM3 (antibody, V domains shown)
# VH: EVQLLESGGGLVQPGGSLRLSCAASGHTFSDYWMQWVRQAPGKGLEWVGAIYPGDGDTRYNQKFKDRFTISRDNSKNTLYLQMNSLRAEDTAVYYCARSMDYWGQGTLVTVSS
# VL: DIVMTQSPDSLAVSLGERATINCRASKTVDSYGNSFMHWYQQKPGQPPKLLIYHSSNLESGVPDRFSGSGSGTDFTLTISSLQAEDVAVYYCLQTIEHPYTFGQGTKLEIK
# notes: also called mH10/mL15
# B7: DM2 (antibody, V domains shown)
# VH: EVQLLESGGGLVQPGGSLRLSCAASGHTFSDYWMQWVRQAPGKGLEWVGAIYPGDGDTRYNQKFKDRFTISRDNSKNTLYLQMNSLRAEDTAVYYCARSMDYWGQGTLVTVSS
# VL: DIVMTQSPDSLAVSLGERATINCRASKTVDSYGNSFMHWFQQKPGQPPKLLIYHSSNLESGVPDRFSGSGSGTDFTLTISSLQAEDVAVYYCLQTIEHPYTFGQGTKLEIK
# notes: also called mH10/mL14
# B8: DM9 (antibody, V domains shown)
# VH: EVQLLESGGGLVQPGGSLRLSCAASGHTFSDYWMQWVRQAPGKGLEWVGAIYPGDGDTRYNQKFKDRFTISRDNSKNTLYLQMNSLRAEDTAVYYCARSMDYWGQGTLVTVSS
# VL: DIVMTQSPDSLAVSLGERATINCRASKTVDSYGSNFMHWYQQKPGQPPKLLIYHSSNLESGVPDRFSGSGSGTDFTLTISSLQAEDVAVYYCLQTIEHPYTFGQGTKLEIK
# notes: also called mH10/mL18
# B9: DM8 (antibody, V domains shown)
# VH: EVQLLESGGGLVQPGGSLRLSCAASGFTFSDYWMQWVRQAPGKGLEWVGAIYPGDGDTRYNQKFKDRFTISRDNSKNTLYLQMNSLRAEDTAVYYCARSMDYWGQGTLVTVSS
# VL: DIVMTQSPDSLAVSLGERATINCRASKTVDSYGNSFMHWYQQKPGQPPKLLIYHSSNLESGVPDRFSGSGSGTDFTLTISSLQAEDVAVYYCLQTIEFPYTFGQGTKLEIK
# notes: also called mH11/mL17
# B10: DM11 (antibody, V domains shown)
# VH: EVQLLESGGGLVQPGGSLRLSCAASGHTFTDYWMQWVRQAPGKGLEWIGAIYPGDGDTRYNQKFKDRFTISRDNSKNTLYLQMNSLRAEDTAVYYCARSMDYWGQGTLVTVSS
# VL: DIVMTQSPDSLAVSLGERATINCRASKTVDSYGNSFMHWFQQKPGQPPKLLIHHSSNLESGVPDRFSGSGSGTDFTLTISSLQAEDVAVYYCLQTIEDPYTFGQGTKLEIK
# notes: also called wt/wt
# B11: DM7 (antibody, V domains shown)
# VH: EVQLLESGGGLVQPGGSLRLSCAASGFTFSDYWMQWVRQAPGKGLEWVGAIYPGDGDTRYNQKFKDRFTISRDNSKNTLYLQMNSLRAEDTAVYYCARSMDYWGQGTLVTVSS
# VL: DIVMTQSPDSLAVSLGERATINCRASKTVDSYGNSFMHWFQQKPGQPPKLLIYHSSNLESGVPDRFSGSGSGTDFTLTISSLQAEDVAVYYCLQTIEHPYTFGQGTKLEIK
# notes: also called mH11/mL14
# B12: DM15 (antibody, V domains shown)
# VH: EVQLLESGGGLVQPGGSLRLSCAASGHTFTDYWMQWVRQAPGKGLEWIGAIYPGDGDTRYNQKFKDRFTISRDNSKNTLYLQMNSLRAEDTAVYYCARSMDYWGQGTLVTVSS
# VL: DIVMTQSPDSLAVSLGERATINCRASKTVDSYGNSFMHWFQQKPGQPPKLLIHHSSNLESGVPDRFSGSGSGTDFTLTISSLQAEDVAVYYCLQTIEHPYTFGQGTKLEIK
# notes: also called wt/mL4
# B13: DM5 (antibody, V domains shown)
# VH: EVQLLESGGGLVQPGGSLRLSCAASGHTFSDYWMQWVRQAPGKGLEWVGAIYPGDGDTRYNQKFKDRFTISRDNSKNTLYLQMNSLRAEDTAVYYCARSMDYWGQGTLVTVSS
# VL: DIVMTQSPDSLAVSLGERATINCRASKTVDSYGNSFMHWFQQKPGQPPKLLIYHSSNLESGVPDRFSGSGSGTDFTLTISSLQAEDVAVYYCLQTIEFPYTFGQGTKLEIK
# notes: also called mH10/mL16
# B14: DM6 (antibody, V domains shown)
# VH: EVQLLESGGGLVQPGGSLRLSCAASGHTFSDYWMQWVRQAPGKGLEWVGAIYPGDGDTRYNQKFKDRFTISRDNSKNTLYLQMNSLRAEDTAVYYCARSMDYWGQGTLVTVSS
# VL: DIVMTQSPDSLAVSLGERATINCRASKTVDSYGNSFMHWYQQKPGQPPKLLIYHSSNLESGVPDRFSGSGSGTDFTLTISSLQAEDVAVYYCLQTIEFPYTFGQGTKLEIK
# notes: also called mH10/mL17
# Target: T1, recombinant human SOST (rhSOST)
# Experiment: SPR Biacore T200, IgG captured via anti-human Fc, rhSOST analyte, 37 C
Binder,Kd,koff,kon
B1,0.566 nM,0.000741 s⁻¹,1.31e+06 M⁻¹ s⁻¹
B2,< 0.0016 nM,< 2.8e-05 s⁻¹,1.72e+07 M⁻¹ s⁻¹
B3,0.207 nM,0.000817 s⁻¹,3.94e+06 M⁻¹ s⁻¹
B4,0.016 nM,8.31e-05 s⁻¹,5.22e+06 M⁻¹ s⁻¹
B5,0.009 nM,5.62e-05 s⁻¹,6.55e+06 M⁻¹ s⁻¹
B6,1.84 nM,0.00285 s⁻¹,1.55e+06 M⁻¹ s⁻¹
B7,0.321 nM,0.000797 s⁻¹,2.48e+06 M⁻¹ s⁻¹
B8,2.32 nM,0.00434 s⁻¹,1.87e+06 M⁻¹ s⁻¹
B9,2.93 nM,0.007 s⁻¹,2.39e+06 M⁻¹ s⁻¹
B10,< 0.0016 nM,< 2.8e-05 s⁻¹,1.7e+07 M⁻¹ s⁻¹
B11,0.966 nM,0.00402 s⁻¹,4.16e+06 M⁻¹ s⁻¹
B12,0.08 nM,0.000297 s⁻¹,3.72e+06 M⁻¹ s⁻¹
B13,0.193 nM,0.000754 s⁻¹,3.91e+06 M⁻¹ s⁻¹
B14,1.18 nM,0.00251 s⁻¹,2.12e+06 M⁻¹ s⁻¹

# Source: patent WO2015087187A1 (dated 2015)
